Measured values as given in the supplement of paper PMC10567573.

B1: EPB41L3 (parent)
chain: SMQCKVILLDGSEYTCDVEKRSRG

Variants of: B1
Assay: protein stability index of a GFP-peptide fusion (GPS, HEK-293T) (PSI 1-6); higher = more stable
Details: c terminus: a fixed tail appended
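Note: lentivirally expressed fusions sorted by FACS into six bins by GFP to DsRed ratio, PSI derived from sequencing read proportions per bin multiplied by bin number.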

Variant | protein stability index
SMQCKWILLDGSEYTCDVEKRSRG | 2.59
SMQCKVIILDGSEYTCDVEKRSRG | 2.17
SMQCKVIPLDGSEYTCDVEKRSRG | 4.33
SMQCKVIHLDGSEYTCDVEKRSRG | 3.66
SMQCKVINLDGSEYTCDVEKRSRG | 4.24
SMQCKVIKLDGSEYTCDVEKRSRG | 3.43
SMQCKVIQLDGSEYTCDVEKRSRG | 4.25
SMQCKVIDLDGSEYTCDVEKRSRG | 4.41
SMQCKVIALDGSEYTCDVEKRSRG | 3.31
SMQCKVITLDGSEYTCDVEKRSRG | 2.67
SMQCKVIMLDGSEYTCDVEKRSRG | 3.13
SMQCKVIELDGSEYTCDVEKRSRG | 4.05
SMQCKVIFLDGSEYTCDVEKRSRG | 4.39
SMQCKVIRLDGSEYTCDVEKRSRG | 2.83
SMQCKVISLDGSEYTCDVEKRSRG | 3.79
SMQCKVIYLDGSEYTCDVEKRSRG | 3.13
SMQCKVICLDGSEYTCDVEKRSRG | 3.13
SMQCQVILLDGSEYTCDVEKRSRG | 3.06
SMQCAVILLDGSEYTCDVEKRSRG | 3.27
SMQCRVILLDGSEYTCDVEKRSRG | 2.06
SMQCHVILLDGSEYTCDVEKRSRG | 2.39
SMQCPVILLDGSEYTCDVEKRSRG | 3.85
SMQCCVILLDGSEYTCDVEKRSRG | 1.77
SMQCDVILLDGSEYTCDVEKRSRG | 3.96

Variant | protein stability index
SMQCSVILLDGSEYTCDVEKRSRG | 3.04
SMQCWVILLDGSEYTCDVEKRSRG | 2.59
SMQCFVILLDGSEYTCDVEKRSRG | 1.58
SMQCGVILLDGSEYTCDVEKRSRG | 3.57
SMQCNVILLDGSEYTCDVEKRSRG | 3.06
SMQCLVILLDGSEYTCDVEKRSRG | 1.31
SMQCTVILLDGSEYTCDVEKRSRG | 2.54
SMQCEVILLDGSEYTCDVEKRSRG | 3.48
SMQCYVILLDGSEYTCDVEKRSRG | 3.16
SMQCMVILLDGSEYTCDVEKRSRG | 1.43
SMQYKVILLDGSEYTCDVEKRSRG | 2.29
SMQWKVILLDGSEYTCDVEKRSRG | 2.32
SMQCKVILLDGSTYTCDVEKRSRG | 2.33
SMQCKVILLDGSVYTCDVEKRSRG | 1.86
SMQCKVILLDGSMYTCDVEKRSRG | 2.09
SMQCKVILLDGSWYTCDVEKRSRG | 2.05
SMQCKVILLDGSQYTCDVEKRSRG | 2.98
SMQCKVILLDGSCYTCDVEKRSRG | 1.81
SMQCKVILLDGSYYTCDVEKRSRG | 1.9
SMQCKVILLDGSPYTCDVEKRSRG | 3.48
SMQCKVILLDGSNYTCDVEKRSRG | 1.75
SMQCKVILLDGSAYTCDVEKRSRG | 2.14
SMQCKVILLDGSLYTCDVEKRSRG | 2.7
SMQCKVILLDGSGYTCDVEKRSRG | 2.79

Variant | protein stability index
SMQCKVILLDGSDYTCDVEKRSRG | 2.37
SMQCKVILLDGSSYTCDVEKRSRG | 3.27
SMQCKVILLDGSHYTCDVEKRSRG | 2.75
SMQCKVILLDGSKYTCDVEKRSRG | 2.41
SMQCKVILLDGSIYTCDVEKRSRG | 1.51
SMQCKVILLDGSEITCDVEKRSRG | 2.74
SMQCKVILLDGSENTCDVEKRSRG | 3.7
SMQCKVILLDGSEFTCDVEKRSRG | 2.21
SMQCKVILLDGSESTCDVEKRSRG | 4.43
SMQCKVILLDGSELTCDVEKRSRG | 1.84
SMQCKVILLDGSEVTCDVEKRSRG | 3.15
SMQCKVILLDGSERTCDVEKRSRG | 3.66
SMQCKVILLDGSEKTCDVEKRSRG | 3.97
SMQCKVILLDGSEATCDVEKRSRG | 3.7
SMQCKVILLDGSEDTCDVEKRSRG | 3.81
SMQCKVILLDGSEGTCDVEKRSRG | 3.69
SMQCKVILLDGSEETCDVEKRSRG | 3.83
SMQCKVILLDGSECTCDVEKRSRG | 2.67
SMQCKVILLDGSETTCDVEKRSRG | 2.81
SMQCKVILLDGSEPTCDVEKRSRG | 3.66
SMQCKVILLDGSEWTCDVEKRSRG | 1.9
SMQCKVLLLDGSEYTCDVEKRSRG | 2.63
SMQCKVTLLDGSEYTCDVEKRSRG | 3.64
SMQCKVQLLDGSEYTCDVEKRSRG | 3.13

Variant | protein stability index
SMQCKVYLLDGSEYTCDVEKRSRG | 2.15
SMQCKVHLLDGSEYTCDVEKRSRG | 3.03
SMQCKVWLLDGSEYTCDVEKRSRG | 3.62
SMQCKVRLLDGSEYTCDVEKRSRG | 3.45
SMQCKVALLDGSEYTCDVEKRSRG | 3.03
SMQCKVNLLDGSEYTCDVEKRSRG | 3.43
SMQCKVSLLDGSEYTCDVEKRSRG | 3.91
SMQCKVFLLDGSEYTCDVEKRSRG | 2.39
SMQCKVDLLDGSEYTCDVEKRSRG | 4.08
SMQCKVILLDGSEYLCDVEKRSRG | 1.67
SMQCKVILLDGSEYSCDVEKRSRG | 3.03
SMQCKVILLDGSEYICDVEKRSRG | 2.67
SMQCKVILLDGSEYRCDVEKRSRG | 2.45
SMQCKVILLDGSEYYCDVEKRSRG | 2.58
SMQCKVILLDGSEYDCDVEKRSRG | 3.38
SMQCKVILLDGSEYVCDVEKRSRG | 2.06
SMQCKVILLDGSEYQCDVEKRSRG | 3.19
SMQCKVILLDGSEYFCDVEKRSRG | 1.63
SMQCKVILLDGSEYMCDVEKRSRG | 2.49
SMQCKVILLDGSEYPCDVEKRSRG | 3.37
SMQCKVILLDGSEYECDVEKRSRG | 2.45
SMQCKVILLDGSEYHCDVEKRSRG | 1.98
